Two molecules from patent US20180201654A1, “PEPTIDE INHIBITORS OF HAUSP DEUBIQUITINASE” (priority 2012, published 2018) can be followed below.

The target in assay [1] is T1, HAUSP TRAF domain HAUSP^62-205 (Homo sapiens, UniProt Q93009). It is filed as binding. Details: All residues of HAUSP^62-205, with the exception of Asp^62, are included in the final model; hexahistidine tag (TEV-cleavable) (cleaved yes); made in house; host or cells: E. coli BL21 (DE3) RIPL. To be noted: for Ka / TΔS / ΔG: ITC, 20° C., pH 7.0. As for the experimental part:
FIG. 5. Typical isothermal titration calorimetric measurements of the interactions between the HAUSP TRAF domain and the vIRF4 protein derivatives or other peptides. Purified proteins and synthesized peptides were reconstituted in 150 mM NaCl and 10 mM HEPES (pH 7.0). The calorimetric assays were performed using a VPITC system. All experiments were carried out with a stirring speed of 300 rpm at 20° C., and the thermal power was recorded every 10 s. Data were analyzed using the ORIGIN software package (version 7.0). […] Each titration against the HAUSP TRAF domain is indicated in each panel.
Purified proteins and synthesized peptides (Peptron Inc., Deajeon, Korea) were reconstituted in 150 mM NaCl and 10 mM HEPES (pH 7.0). The calorimetric assays were performed using a VP-ITC system (MicroCal Inc., Northampton, Mass.). Samples were degassed by vacuum aspiration for 15 min prior to loading. All experiments were carried out with a stirring speed of 300 rpm at 20° C., and the thermal power was recorded every 10 s. Data were analyzed using the ORIGIN software package (version 7.0) supplied with the instrument. […] (SEQ ID NO: 6); EBNA1^435-449, […] (SEQ ID NO: 7); MDM2^137-152, […] […] (SEQ ID NO: 10). Each set of ITC experiments was repeated two or three times.

Assay [2] concerns the target T1, HAUSP TRAF domain HAUSP^62-205. Description: Size exclusion chromatography of complex formation in excess MDM2^137-152. More on the design: hexahistidine tag (TEV-cleavable) (cleaved yes); made in house; host or cells: E. coli BL21 (DE3) RIPL. To be noted: in the presence of a 5-fold molar excess of MDM2^137-152. In kind it is binding. A general note: In gel filtration, larger molecules generally elute earlier.

T1 sequence (Q93009 62-205): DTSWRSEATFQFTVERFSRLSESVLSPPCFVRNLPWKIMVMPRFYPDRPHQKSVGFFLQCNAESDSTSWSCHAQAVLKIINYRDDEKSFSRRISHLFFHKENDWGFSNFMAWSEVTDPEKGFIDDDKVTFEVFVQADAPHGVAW

B1: vIRF4^153-256 (protein)
chain: SDTREQSYEEAGAAAPAPPKAPSGLRGRPRKSNRYYNVGDITTEQKAACSVWIPVNEGASTSGMGSSGTRQVTQASSFTWRVPGDPPAPSTLTGPSDPHSSGAG
With B1, in assay [1], the Ka is given as 13.20 ± 0.85 10^6 M^−1, the TΔS was -10.05 kcal/mol and the ΔG is -7.64 kcal/mol.

B2: vIRF4^153-216 (protein)
chain: SDTREQSYEEAGAAAPAPPKAPSGLRGRPRKSNRYYNVGDITTEQKAACSVWIPVNEGASTSGM
For the molecule B2, in assay [2], the “complex formation with the TRAF domain” value is listed as “formed a stable complex”. Also, in assay [1] (ITC comparison), the “TRAF binding affinity (in words)” value was “comparable TRAF binding affinity”. For the same molecule, in assay [1], the Ka is given as 1.84 ± 0.10 10^6 M^−1, the TΔS was -7.35 kcal/mol and the ΔG was -8.41 kcal/mol.
